Results on one substance are retold here after article PMC5436050.

For the experiment, the target named is H1G101C, a mutant of X. laevis linker histone H1°, labeled with Cy5 (Xenopus laevis) (UniProt P22844).

Chain of N-terminally His6-tagged yeast Nap1 (P25293 whole entry): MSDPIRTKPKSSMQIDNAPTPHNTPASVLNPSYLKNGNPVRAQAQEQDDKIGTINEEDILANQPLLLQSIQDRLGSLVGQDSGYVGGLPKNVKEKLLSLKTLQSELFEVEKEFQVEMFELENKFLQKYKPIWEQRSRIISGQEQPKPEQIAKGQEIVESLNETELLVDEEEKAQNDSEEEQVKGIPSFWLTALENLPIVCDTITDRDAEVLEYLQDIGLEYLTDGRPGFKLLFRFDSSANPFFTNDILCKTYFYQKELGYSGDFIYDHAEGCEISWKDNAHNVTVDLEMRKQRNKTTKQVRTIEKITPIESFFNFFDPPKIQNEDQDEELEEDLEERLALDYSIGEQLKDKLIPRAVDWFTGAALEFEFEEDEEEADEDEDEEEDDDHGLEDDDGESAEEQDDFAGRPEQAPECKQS

“N-terminally His6-tagged yeast Nap1 (from UniProt P25293 1-417) (natural protein)”: the percent of nucleosomes still bound with H1 with 60 nM Nap1 worked out at 17.5%.
